# Assay results published in patent publication US20070196354A1, “Method of treating diabetes by inhibiting degradation of at least one of crebl1, atf6, and hnf-4 alpha by htra” (priority 2003, published 2007).
# T1: ATF6 (Homo sapiens, UniProt P18850)
# T1 construct: expressed in transfected cells; host or cells: HEK293T
# T1 sequence (P18850 1-670): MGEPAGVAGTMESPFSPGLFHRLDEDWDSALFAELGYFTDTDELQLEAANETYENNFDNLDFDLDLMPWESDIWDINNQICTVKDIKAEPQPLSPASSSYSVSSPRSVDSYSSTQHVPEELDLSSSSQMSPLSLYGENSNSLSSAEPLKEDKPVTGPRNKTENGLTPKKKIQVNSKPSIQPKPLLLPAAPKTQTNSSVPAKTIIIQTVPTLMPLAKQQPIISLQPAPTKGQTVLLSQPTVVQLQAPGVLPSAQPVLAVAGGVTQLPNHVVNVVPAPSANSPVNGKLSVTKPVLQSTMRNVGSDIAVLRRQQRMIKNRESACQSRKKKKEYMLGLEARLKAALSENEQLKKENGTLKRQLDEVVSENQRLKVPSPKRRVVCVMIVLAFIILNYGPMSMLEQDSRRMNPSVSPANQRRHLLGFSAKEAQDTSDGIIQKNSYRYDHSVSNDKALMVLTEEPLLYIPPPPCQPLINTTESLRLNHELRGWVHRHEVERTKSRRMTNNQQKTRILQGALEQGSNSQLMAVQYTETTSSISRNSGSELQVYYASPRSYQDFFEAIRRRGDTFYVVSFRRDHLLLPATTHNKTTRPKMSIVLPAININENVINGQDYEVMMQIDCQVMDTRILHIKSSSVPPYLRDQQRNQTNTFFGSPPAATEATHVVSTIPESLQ
# T2: HNF-4α (Homo sapiens, UniProt P41235)
# T2 construct: expressed in transfected cells; host or cells: HEK293T
# T2 sequence (P41235 10-474): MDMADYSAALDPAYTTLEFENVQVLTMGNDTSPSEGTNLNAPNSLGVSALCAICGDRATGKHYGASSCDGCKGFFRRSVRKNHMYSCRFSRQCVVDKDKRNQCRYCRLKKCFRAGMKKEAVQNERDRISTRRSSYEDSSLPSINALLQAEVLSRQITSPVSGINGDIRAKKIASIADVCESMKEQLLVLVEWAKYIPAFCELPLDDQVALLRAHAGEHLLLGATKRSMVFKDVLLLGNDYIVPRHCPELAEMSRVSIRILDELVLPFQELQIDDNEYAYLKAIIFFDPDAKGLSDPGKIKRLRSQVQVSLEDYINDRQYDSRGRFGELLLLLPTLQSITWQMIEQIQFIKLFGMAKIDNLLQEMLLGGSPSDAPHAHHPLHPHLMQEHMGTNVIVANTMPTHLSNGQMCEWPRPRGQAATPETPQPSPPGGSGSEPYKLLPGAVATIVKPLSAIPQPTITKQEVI
# T3: CREBL1 (Homo sapiens, UniProt Q99941)
# T3 construct: expressed in transfected cells; host or cells: HEK293T
# T3 sequence (Q99941 1-703): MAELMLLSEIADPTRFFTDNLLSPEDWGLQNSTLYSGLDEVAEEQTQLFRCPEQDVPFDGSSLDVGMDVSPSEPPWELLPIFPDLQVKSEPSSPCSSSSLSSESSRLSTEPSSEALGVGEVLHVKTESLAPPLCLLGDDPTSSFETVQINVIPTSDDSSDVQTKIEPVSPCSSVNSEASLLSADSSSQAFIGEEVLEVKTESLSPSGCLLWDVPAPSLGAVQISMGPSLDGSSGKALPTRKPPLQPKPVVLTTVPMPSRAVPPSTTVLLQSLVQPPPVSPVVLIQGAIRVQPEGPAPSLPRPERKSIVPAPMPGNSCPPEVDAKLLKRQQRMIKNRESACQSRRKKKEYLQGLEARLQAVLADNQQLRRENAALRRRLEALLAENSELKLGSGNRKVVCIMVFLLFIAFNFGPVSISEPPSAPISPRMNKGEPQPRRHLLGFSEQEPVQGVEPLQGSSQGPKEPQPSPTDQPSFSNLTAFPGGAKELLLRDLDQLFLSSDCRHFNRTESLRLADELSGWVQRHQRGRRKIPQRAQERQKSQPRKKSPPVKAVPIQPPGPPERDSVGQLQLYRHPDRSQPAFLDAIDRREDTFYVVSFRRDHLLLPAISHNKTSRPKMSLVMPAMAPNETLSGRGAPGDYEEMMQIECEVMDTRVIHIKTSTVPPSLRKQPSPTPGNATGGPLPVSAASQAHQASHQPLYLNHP
# Key:
# [1] = target: T1, ATF6; test: Intracellular protease assay, co-expression with ATF6 in HEK293T cells; type: cell-based; details: 48 hours
# Procedure: (§1) HEK293T cells were cultured to 1.5×10^5 cells/10 cm Dish. Next day, the expression plasmid of CREBL1 or ATF6 was transfected into HEK293T cells together with the expression plasmid of various types of HtrA2 using FuGene 6 (Roche). Each of the expression plasmid of various HtrA2 at 1 μg/Dish was added in combination with CREBL1 expression plasmid or ATF6 expression plasmid at 1 μg/Dish. Forty eight hours later, the cells in which the various types of HtrA2 were co-expressed with CREBL1 or ATF6 were added with 200 μl of lysis buffer B and an equivalent volume of 2×SDS sample buffer (containing 0.1% β-mercaptoethanol), and then subjected to sonication followed by boiling to use as a test sample.
# (§2) Expression of CREBL1 and ATF6 and the degradation of these proteins were detected by western blotting using 10 μl of the test sample thus obtained. Anti-c-Myc (9E10) antibody was used as a primary antibody for detection, and horseradish peroxidase (HRP) conjugated anti-mouse IgG antibody (Cell Signaling) was used as a secondary antibody. Detection was carried out using ECL Western Blotting Detection System.
# [2] = target: T2, HNF-4α; test: Intracellular protease assay, co-expression with HNF-4α in HEK293T cells; type: cell-based; details: 48 hours
# Procedure: as §1, with “cells/6” for “cells/10”, “HNF-4α” for “CREBL1 or ATF6”, “HNF-4α” for “CREBL1 expression plasmid or ATF6”
# Expression of HNF-4α and the degradation of HNF-4α were detected by western blotting using 10 μl of the test sample thus obtained. Anti-FLAG antibody (Sigma) was used as a primary antibody for detection, and horseradish peroxidase (HRP) labeled anti-mouse IgG antibody (Cell Signaling) was used as a secondary antibody. Detection was carried out using ECL Western Blotting Detection System.
# [3] = target: T3, CREBL1; test: Intracellular protease assay, co-expression with CREBL1 in HEK293T cells; type: cell-based; details: 48 hours
# Procedure: as §1, §2
# [4] = test system: casein; test: Casein zymography and protease assay with casein sodium; type: biochemical; details: for protease activity using casein sodium as a substrate: HtrA2 types expressed in a cultured cell
# Procedure: Determination of the activity of mature HtrA2 and mature HtrA2 (S306A) was carried out with casein zymography and with a protease assay with casein sodium. Casein zymography was carried out according to the protocol (Invitrogen). More concretely, mature HtrA2 and mature HtrA2 (S306A) were mixed under non-reductive condition with equivalent volume of 2×SDS sample buffer, left to stand at room temperature for 10 min, followed by separation with 4-16% zymogram (Blue casein) gel (Zymogram Gel, Invitrogen). After completion of electrophoresis, they were renatured with 2.5% Triton X-100, and then subjected to a degradation reaction of casein in the developing buffer at 37= C. for overnight.
# Meanwhile, a protease assay using casein sodium as an substrate was carried out in such that mature HtrA2 or mature HtrA2 (S306A) was mixed with casein sodium in a reaction buffer (150 mM NaCl, 50 mM Tris-HCl (pH 7.5)) so as to the concentration of the former might become 200 μg/ml and the concentration of the latter might become 400 μg/ml, and incubated at 37° C. for reactions. A portion of the reaction solution was sampled at three hours and overnight after initiation of the reaction, mixed with equivalent volume of 2×SDS sample buffer followed by boiling, and then subjected to SDS-PAGE. After that, the degradation of casein sodium was detected by Coomassie Brilliant Blue (CBB) staining.
# The enzyme activity of the various types of HtrA2 each of which was expressed in a cultured cell was determined by the protease assay using casein sodium as a substrate (see Example 2).
Molecule,degradation of ATF6 in cells (band by western blotting) [1],degradation of HNF-4α in cells (band by western blotting) [2],degradation of CREBL1 in cells (band by western blotting) [3],protease activity using casein sodium as a substrate [4],"degradation of casein ([4]; casein zymography and casein sodium protease assay, 37° C., E. coli-expressed His-tagged protein)"
"mature HtrA2 (ΔAVPS): SEQ ID NO: 8; lacks the N-terminal four amino acid residues (AVPS) of mature HtrA2 (protein, Polypeptide consisting of the same amino acid sequence of SEQ ID NO4 wherein the amino acid residues from the 2nd to the 5th are deleted; mature HtrA2(delta AVPS)) MPPPASPRSQYNFIADVVEKTAPAVVYIEILDRHPFLGREVPISNGSGFVVAADGLIVTNAHVVADRRRVRVRLLSGDTYEAVVTAVDPVADIATLRIQTKEPLPTLPLGRSADVRQGEFVVAMGSPFALQNTITSGIVSSAQRPARDLGLPQTNVEYIQTDAAIDFGNSGGPLVNLDGEVIGVNTMKVTAGISFAIPSDRLREFLHRGEKKNSSSGISGSQRRYIGVMMLTLSPSILAELQLREPSFPDVQHGVLIHKVILGSPAHRAGLRPGDVILAIGEQMVQNAEDVYEAVRTQSQLAVQIRRGRETLTLYVTPEVTE",the band of ATF6 was reduced significantly,the band of HNF-4α was reduced significantly,the band of CREBL1 was reduced significantly,active type having protease activity,–
"mature HtrA2 (S306A): SEQ ID NO: 6; HtrA2 mutant with substitution of the 174th serine residue of mature HtrA2 with alanine (protein, Polypeptide consisting of the same amino acid sequence of SEQ ID NO4 wherein the 174th amino acid residue is substituted by Ala; mature HtrA2(S306A), HtrA2 mutant with substitution of the 174th serine residue of mature HtrA2 with alanine) MAVPSPPPASPRSQYNFIADVVEKTAPAVVYIEILDRHPFLGREVPISNGSGFVVAADGLIVTNAHVVADRRRVRVRLLSGDTYEAVVTAVDPVADIATLRIQTKEPLPTLPLGRSADVRQGEFVVAMGSPFALQNTITSGIVSSAQRPARDLGLPQTNVEYIQTDAAIDFGNAGGPLVNLDGEVIGVNTMKVTAGISFAIPSDRLREFLHRGEKKNSSSGISGSQRRYIGVMMLTLSPSILAELQLREPSFPDVQHGVLIHKVILGSPAHRAGLRPGDVILAIGEQMVQNAEDVYEAVRTQSQLAVQIRRGRETLTLYVTPEVTE",–,–,–,–,degradation of casein was not observed
"mature HtrA2 (GVPS): SEQ ID NO: 10; substitution of alanine among the N-terminal four residues of mature HtrA2 with glycine (protein, Polypeptide consisting of the same amino acid sequence of SEQ ID NO4 wherein the 2nd amino acid residue is substituted by Gly; mature HtrA2(GVPS), substitution of alanine among the N-terminal four residues of mature HtrA2 with glycine) MGVPSPPPASPRSQYNFIADVVEKTAPAVVYIEILDRHPFLGREVPISNGSGFVVAADGLIVTNAHVVADRRRVRVRLLSGDTYEAVVTAVDPVADIATLRIQTKEPLPTLPLGRSADVRQGEFVVAMGSPFALQNTITSGIVSSAQRPARDLGLPQTNVEYIQTDAAIDFGNSGGPLVNLDGEVIGVNTMKVTAGISFAIPSDRLREFLHRGEKKNSSSGISGSQRRYIGVMMLTLSPSILAELQLREPSFPDVQHGVLIHKVILGSPAHRAGLRPGDVILAIGEQMVQNAEDVYEAVRTQSQLAVQIRRGRETLTLYVTPEVTE",the band of ATF6 was reduced significantly,the band of HNF-4α was reduced significantly,the band of CREBL1 was reduced significantly,active type having protease activity,–
